Test results: the nanobody polyreactivity screen of Harvey et al. (2022)

Assay: yeast display, Sf9 membrane polyspecificity reagent, FACS + sequencing; frameworks hold sequencing errors
Outline: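 Galactose induction of a Saccharomyces cerevisiae BJ5465 synthetic nanobody display library ran 36–48 hours. The cells were then stained for 1 hour at 4 °C with 10% biotinylated, detergent-solubilized Sf9 membrane reagent, pulled down on streptavidin microbeads and FACS-sorted into low and high (top ~1%) gates on expression and reagent-binding fluorescence. Labels for polyreactivity follow the gate of origin.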

| Sequence | polyreactivity (PSR sort gate) |
| --- | --- |
| QVQLVESGGGLVQAGGSLRLSCAASGLTFVTYVMGWYRLAPGKERELVAAISYSGGSTYYADSVKARFTISRDNAKNTVYLLMNSLKPEDTAVYYCAAEWYGYEEDDYWGQGTQVTVSS | low polyreactivity |
| QVQLVESGGGLVQAGGSLRLSCAASGLTFVTYVMGWYRPAPGKERELVAAISYSGGSTYYADSVKGRFTISRDNAKNTVYLQMNSLKPEDTAVYYCAAEWYGYQEDDYWGQGTQVTVSS | low polyreactivity |
| QVQLVESGGGLVQAGGSLRLSCAASGLTFVWYVMGWYRQAPGKERELVAAITSGGTTYYADSVKGRFTISRDNAKNTVYLQMNSLKPEDTAVYYCAAQWAGYGDLPWPYSVIVEFYYWGQGTQVTVSS | low polyreactivity |
| QVQLVESGGGLVQAGGSLRLSCAASGLTFVYNAMGWYRQAPGKERELVADISYDGGGTYYADSVKGRFTISRDNAMNTVYLQMNSLKPEDTAVYYCAKRAFGSQGEISYTPPGYDSWGQGTQVTVSS | low polyreactivity |
| QVQLVESGGGLVQAGGSLRLSCAASGLTFVYYAMGWYRQAPGKERELVAAISGVGSTHYADSVKGRFTISRDNANNTVYLQMNSLKPEDTAVYYCNADYAYFWGWYGDWGQGTQVTVSS | low polyreactivity |
| QVQLVESGGGLVQAGGSLRLSCAASGLTFWRYTMGWYRQAPGKERELVAVITYRGGSTYYADSVKGRFTISRDNAKNTVYLQMNSLKPEDTAVYYCAAGRRTYGLTYDYWGQGTQVTVSS | high polyreactivity |
| QVQLVESGGGLVQAGGSLRLSCAASGLTFWYYAMGWYRQAPGKERELVARITRSGVGTYYADSVKGRFTISRDNAKNTVYLQMNSLKPEDTAVYYCNARYQYSWVRYGYDYWGQGTQVTVSS | high polyreactivity |
| QVQLVESGGGLVQAGGSLRLSCAASGLTFWYYGMGWYRQAAGKERELDAAISKTGGRTYYADSVKGRFTISRDNAKNTVYLQMNSLKPEDTAVYYCAADTDVLKGTTGFEYWGQGTQVTVSS | low polyreactivity |
| QVQLVESGGGLVQAGGSLRLSCAASGLTFYAYVMGWYRPAPGNERELVAAISGGGSTYYADSVKGRFTISRDNAKNSVYLEMISLKPEDTAVYYCNAELSLWDLGYDYWVQGTQVTVSS | low polyreactivity |
| QVQLVESGGGLVQAGGSLRLSCAASGLTFYFYAMGWYRQAPGKERELVAAISYSGGSTYYADSVKGRFTISRDKAENTVYLQMNSLKPEDTAVYYCAARPTDGSGWPYRWTSDYWGHGTQVTVSS | low polyreactivity |
| QVQLVESGGGLVQAGGSLRLSCAASGLTFYGNAMGWYRQAPGKERELVADISLSGGRTFYADSVKGRFTISRDNAKNTVYLQMNSLKPEDTAVYYCAAVWRTGWYYEYYHWGQGTQVTVSS | low polyreactivity |
| QVQLVESGGGLVQAGGSLRLSCAASGLTFYGNARGWYRQAPGKERELVADISLSGGRTFYADSVKGRFTISRDNAKHTVYLQMNSLKPEDTAVYYCANTYTSGYHRRYDYWGQGTQVTVSS | low polyreactivity |
| QVQLVESGGGLVQAGGSLRLSCAASGLTFYIYAMGWYRQAHGKERELVASISSSGGITYYADSVKGRFTISRDNAKNTVYLQMNSLKPEDTAVYYCAATYSHRRGDYWGQGTQVTVSS | high polyreactivity |
| QVQLVESGGGLVQAGGSLRLSCAASGLTFYQNAMGWYRQAPGKEREFVASITRRGGRTYYADSVKGRFTISRDNAKNTVYLQMNSLKPEDTAVYYCAATFPQYQAIKEDYWGQGTQVTVSP | high polyreactivity |
| QVQLVESGGGLVQAGGSLRLSCAASGLTFYQYTMGWYRQAPGKERELVAAISRRGGSTYYADSVKGRFTISRDNAKNTVYLQMNSLKPEDTAVYYCAARALRYSRDFDYWGQGTQVTVSS | high polyreactivity |
| QVQLVESGGGLVQAGGSLRLSCAASGLTFYRNVMGWYRQAPGKERELVAAISGNGGSTYYADSVKGRFTISRDNAKNTVYLQMNSLKPEDTAVYYCATRAYDTGYGYWGQGTQVTVSS | high polyreactivity |

| Sequence | polyreactivity (PSR sort gate) |
| --- | --- |
| QVQLVESGGGLVQAGGSLRLSCAASGLTFYRYAMGWYRQAPGKERELVAAITSGGGRTYYADSVKGRFTISRDNAKNTVYLQMNSLKPEDTAVYYCAADRGDYRWRGLTPSSYGYWGQGTQVTVSS | high polyreactivity |
| QVQLVESGGGLVQAGGSLRLSCAASGLTFYSYAMGWYRQAPGKERELVATIRWSGGSTYYADSVKGRFTISRDNAKNTVYLQMNSLKPEDTAVYYCATSSTHSRGDEYWGQGTQVTVSS | low polyreactivity |
| QVQLVESGGGLVQAGGSLRLSCAASGLTFYVNARGWYRQAPGKERELVATISGSGSTNYADSVKGRFTISRDNAKNTVYLQMNSLKPEDTAVYDCNAGWAQDPSNYWGQGTQVTVSS | high polyreactivity |
| QVQLVESGGGLVQAGGSLRLSCAASGLTFYYYAMGWYRQAPGKEREFVAAISYRGGRTYYADSVKGRFTISRDNAKNTVYLQMNSLKPEDTAVYYCAKLGKSRWWGVGPLEMDSWGQGTQVTVSS | high polyreactivity |
| QVQLVESGGGLVQAGGSLRLSCAASGLTFYYYAMGWYRQAPGKERELVARISSGTSTYYADSVKGRFTISRDNAKNTVYLQMNSLKPEDTAVYFCNARRKLGSTHGPWGGLVYWGQGTQVTVSS | low polyreactivity |
| QVQLVESGGGLVQAGGSLRLSCAASGLTFYYYVMGWYRQAPGKERELVAAISYSGGRTYYADSVKGRFTISRDNAKNTVSLQMNSLKPEDTAVYYCAAQSRYGGKFYYWGQGTQVTVSS | high polyreactivity |
| QVQLVESGGGLVQAGGSLRLSCAASGLTIAAYAMGWYRQAPGKERELVAAITQRGGSTYYADSVKGRFTISRDNAKNTVYLQMNSLKPEDTAVYYCAADSTWWWWKLYSPYGYDYWGQGTQVTVSS | low polyreactivity |
| QVQLVESGGGLVQAGGSLRLSCAASGLTIYHYAMGWYRQAPGKERELVAAISWNGGSTYYADSVKGRFTFSRDNAKNTVYLQMNSLKPEDTAVYYCAVVFNPHRYTGVLAGYDYWGQGTQVTVSS | high polyreactivity |
| QVQLVESGGGLVQAGGSLRLSCAASGLTIYYYAMGWYIQAPGKEREFVAAISWHGGSTYYADSVKGRFTISRDNAKNTVYLQMNSLKPEDTAVYYCAADIYLRGFHYDYWGLGTQVTVSS | low polyreactivity |
| QVQLVESGGGLVQAGGSLRLSCAASGLTLETNAMGWYRQAPGKERELVAGITYSGGTTYYADSVKGRFTISRDNAKNSVYLQINSLKPDDTAVYDCNAGPLRSGRYTYYYWGQGTQVTVSS | low polyreactivity |
| QVQLVESGGGLVQAGGSLRLSCAASGLTLGRYAMGWYRQAPGNERELVAVITGGGSTNYADSVKGRFTISRDNAKNTVYIQLNSLKPADTAVYYCAVRGGIFQTLSTWYRYYYCGQGTQVTVSS | high polyreactivity |
| QVQLVESGGGLVQAGGSLRLSCAASGLTLGSYAMGWYRQAPGKERELVAAISRRSGRTYYADSVKGRFTISRDNAKNTVYLKMNSLKPEDTAVDYCNRGYTAQVYTEFDYWGQGTQVTVSS | low polyreactivity |
| QVQLVESGGGLVQAGGSLRLSCAASGLTLHGNAMGWYSQAPGKERGLVATITSSGGSTFYADSVKGRFTISRDNAKNTVSLQMNSLKPEDTAVFYCNADAPYSDDYYVRFDYWGQGTQVTVSS | low polyreactivity |
| QVQLVESGGGLVQAGGSLRLSCAASGLTLKTYAMGWYRQAPGKERELVAGISASGGSTYYADSVKGRFTISRDIAKNTVYLQLNSLKPVDTAVYYCAKVTRAYRAYYYWGQGTQVTVSS | high polyreactivity |
| QVQLVESGGGLVQAGGSLRLSCAASGLTLNYYAMGWYRQAPGKERELVASISRSGGRTYYADSVKGRFTISRVNAKNTVYLQMNSLKPDDSAVYYCNADWYRGRYDYWGQGTQVTVSS | high polyreactivity |
